# According to patent publication US10556936B2, “Immunogenic proteins and fragments thereof from allergenic mites” (ALK-ABELLÓ A/S, priority 2016, dated 2020):
# Assays:
# Type in all cases: cell-based, human
# [1] = test system: PBMC cells obtained from mite allergic patients and non-allergics; experiment: Ex vivo stimulation of PBMC: cytokine production (IFN-gamma, IL-9, IL-10, IL-17, IL-31)
# Source text: (§1) This example relates to the further testing of immunogenicity of the proteins identified in Example 1. Their ability to react with IgE antibodies in HDM allergic individuals, to stimulate in vitro T cell proliferation of HDM allergic individuals and non-allergics, and to stimulate ex vivo cytokine production of HDM allergic individuals and non-allergics. The following tests were used: • Basophil Activation Test (BAT) was used as a predictive in vitro assay for indication of safety/immediate hypersensitivity reactions. BAT test was carried out using blood from HDM allergic individuals (n=14), and by use of different concentrations of test proteins or the major house dust mite allergens (Der p 1, Der f 1, Der p 2 or Der f 2, e.g. a concentration of 1, 10, 100 or 1000 ng/ml. • In vitro T cell reactivity determined in T cell lines obtained from HDM allergic individuals (n=30) and non-allergics (n=8): Determined by establishment of HDM specific T-cell lines according to standard methods. In short, PMBCs from HDM allergic donors were cultured for 3 weeks in the presence of house dust mite allergen extract. The responses to proteins at a concentration of 0.5 ug/ml or 2 ug/ml of the test protein or the major house dust mite allergens (Der p 1, Der f 1, Der p 2 or Der f 2) were assessed by proliferation in a standard 72 h T cell proliferation assay, as described in Henmar H et al., Clin Exp Immunol 2008; 153(3):316-23. […]. • Ex vivo stimulation of PBMC cells obtained from mite allergic patients (n=16) and non-allergics (n=6): Determined by measuring the production of the cytokines; IFN-gamma, IL-9, IL-10, IL-17 and IL-31 following stimulation with test protein in concentration up to 10 ug/ml. Freshly isolated PBMC 5×10^6/ml were cultured with a test protein for 5 days and cell supernatant were harvested and stored at −80° C. Cytokines of the supernatants were measured using ProcartaPlex Multiplex Immunoassays with MAGPIX Multiplex Reader according manufactory protocol.
# [2] = test system: basophils in whole blood from HDM allergic donors; experiment: Basophil Activation Test (BAT); settings: blood from HDM allergic individuals (n=14)
# Experimental: Basophil Activation Test (BAT) was used as a predictive in vitro assay for indication of safety/immediate hypersensitivity reactions. The BAT assay is a widely used diagnostic test that is also used for evaluation of allergenicity of allergen derived components. In short: whole blood from HDM allergic donors was stimulated for 1 h with the proteins, and the increased expression of activation markers on the surface of basophils were measured by flow cytometry. The BAT test was carried out using different concentrations of the proteins and the allergens Der p 2 and Der p 1 was used as controls and tested in the same concentration rates.
# as §1
# [3] = test system: T cell lines obtained from HDM allergic individuals and non-allergics; experiment: In vitro T cell proliferation test in T cell lines (Example 3); settings: 0.5 or 2 ug/ml, 72 h; for % responders of in-vitro T cell proliferation test, Allergic: T cell lines from HDM allergic individuals (n=30); for % responders of in-vitro T cell proliferation test, Non-allergics: T cell lines from non-allergics (n=8)
# Source text: as §1
Molecule,% HDM allergic individuals with cytokine production in ex-vivo T cell assay IL-5 [1] [%],% HDM allergic individuals with cytokine production in ex-vivo T cell assay IL-9 [1] [%],% HDM allergic individuals with cytokine production in ex-vivo T cell assay IL-10 [1] [%],% HDM allergic individuals with cytokine production in ex-vivo T cell assay IL-13 [1] [%],% HDM allergic individuals with cytokine production in ex-vivo T cell assay IL-17 [1] [%],% HDM allergic individuals with cytokine production in ex-vivo T cell assay IL-31 [1] [%],% HDM allergic individuals with cytokine production in ex-vivo T cell assay INF-g [1] [%],% non-allergic individuals with cytokine production in ex-vivo T cell assay IL-5 [1] [%],% non-allergic individuals with cytokine production in ex-vivo T cell assay IL-9 [1] [%],% non-allergic individuals with cytokine production in ex-vivo T cell assay IL-10 [1] [%],% non-allergic individuals with cytokine production in ex-vivo T cell assay IL-13 [1] [%],% non-allergic individuals with cytokine production in ex-vivo T cell assay IL-17 [1] [%],% non-allergic individuals with cytokine production in ex-vivo T cell assay IL-31 [1] [%],% non-allergic individuals with cytokine production in ex-vivo T cell assay INF-g [1] [%],# of individuals of 14 with positive BAT test ([2]; 1 ng/ml),# of individuals of 14 with positive BAT test ([2]; 10 ng/ml),# of individuals of 14 with positive BAT test ([2]; 100 ng/ml),# of individuals of 14 with positive BAT test ([2]; 1000 ng/ml),"% responders of in-vitro T cell proliferation test, Allergic [3] [%]","% responders of in-vitro T cell proliferation test, Non-allergics [3] [%]"
"A017: house dust mite protein; SEQ ID NO: 21 (Der f), 25 (Der p), 313 (Blo t) (protein) MSSSSGKKYDFSGKVALVTGSSSGIGAAIALQFAQYGAQVTITGRDAAALESVAKRIEAESGHQPLQIVGNLLDQSLPAKLIDGTISKYGRLDFLVNNAGFSTQHRDIHDEKLMEAFDQVYGLNVRAVVQLSQLAATHLEKSKGNIINISSNLSMMPVHIIYSSSKAALDMITKTMAMEFGKKGVRVNSINPGPVATQFMRSLGMPVTFLKENEEFVKELTLLKFVAQPVEIANLASFLASDDARNMTGSIVVNDTGSLLAPRVDFKKLDEIKKK",0,0,25,0,13,0,6,0,0,33,0,17,0,0,0,0,0,0,7,0
"A016: house dust mite protein; SEQ ID NO: 28 (Der f), 29 (Der p) (protein) MVKIGINGFGRIGRLVLRAAIKKGVEVAAINDPFLDVKYMVYMFKFDSTHGRYQGEVKEEGGLLVVDGQKIQVFQERNPAEIPWGKVGADYVVESTGVFTTIEKAKAHLAGGAKKVIISAPSADAPMYVMGVNHDKYDPKQQIISNASCTTNCLAPLAKVINDKFGIENGLMTTVHAITATQKTVDGPSGKLWRDGRGAGQNIIPASTGAAKAVGKVIPELNGKLTGMALRVPVPDVSVVDLTVTLKNPASYDEIKAAVKAAAESDHWKGILEYTDEEVVSSDFISDTHSSIFDAKAGIALTPTFVKLIAWYDNEFGYSNRVVDLIKYVASK",6,0,25,13,13,0,6,0,0,0,0,17,0,0,0,0,0,0,7,0
"A018: house dust mite protein; SEQ ID NO: 5 (Der f), 6 (Der p), 314 (Blo t) (protein) MVKAVVVLKGDPNVSGTIFFEQQDNGPVKVTGSVQGLKPGLHGFHVHEFGDNTNGCTSAGAHYNPLNKTHGAPNDEERHVGDLGNIEANDKGVANVVIEDSLISLTGEKSIVGRSLVVHADPDDLGRGGHELSKTTGNAGGRLVCGVIGVTK",0,6,56,13,44,6,19,0,0,67,17,83,0,33,0,0,0,0,0,0
"A019: house dust mite protein; SEQ ID NO: 1 (Der f), 4 (Der p), 315 (Blo t) (protein) QVYCNGAAIVSAARSQIGVPYSWGGGGIHGKSRGIGEGANTVGFDCSGLAQYSVYQGTHKVLARVASGQYSDPKCHHVAYGSHQPGDLVFFGNPIHHVGIVSAHGRMINAPHTGTNVREENIWSDHIANVARCW",38,56,75,56,100,13,50,0,0,100,0,100,17,100,2,2,2,4,39,13
